From PMC10237653
pKd: −log10 of the molar value.

Columns and labels:
[1] = biological target: GST-fused AjTmod after the addition of His-fused STPKLRR (phosphorylated AjTmod) (Apostichopus japonicus); assay: MST; as a4, but His-fused STPKLRR (5 uM) added to GSTTmod/His-fused actin and incubated for 10 min
[2] = biological target: GST-fused AjTmod (complete AjTmod sequence) (Apostichopus japonicus); assay: MST; Monolith NT.115; NT-647-NHS labelled protein (about 5 uM) with 16 serial concentrations of unlabelled His-fused actin; 50 mM Tris-HCl pH 8.0, 0.02% Tween 20; 25 °C

## His-fused actin (natural protein)
[1]
  pKd: 8.15
[2]
  pKd: 8.83
